Data taken from patent US20140303084.
Positions count from the first letter of the chain named.

How the values were obtained:
[1] = test system: T1, KLTCLGSYCWLF
T1 sequence: KLTCLGSYCWLF

[2] = test system: T2, PRIRTVGPGSRSASGKLTCLASYCWLFWSGIA
T2 sequence: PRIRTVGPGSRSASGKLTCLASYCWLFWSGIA

[3] = test system: T3, RAAPGKLQCLASYCWLFWTGIA
T3 sequence: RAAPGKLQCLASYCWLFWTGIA

[4] = test system: T4, PRIRTVGPGSRSASGKLTCLASYCWLFWTLIA
T4 sequence: T2 sequence with S29T, G30L

[5] = test system: T5, ALTCLAAYCALF
T5 sequence: ALTCLAAYCALF

[6] = test system: T6, SKQGRPISPDrRAAGKLTCLASYCWLF
T6 sequence: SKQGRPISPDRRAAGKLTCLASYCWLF

[7] = test system: T7, SKQGRPISPDrRAAGKLTCLASYCWLFWTGIA-PEG4-C(N-PEG5k maleimide)
T7 sequence: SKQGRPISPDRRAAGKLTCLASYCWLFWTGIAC

[8] = test system: T8, PRSRTVGPGSRSASGKSTCLASYCWLFWTGIA
T8 sequence: T2 sequence with I3S, L17S, S29T

[9] = test system: T9, rRAPGKLTCLASYCWLFWTGIA-COOH
T9 sequence: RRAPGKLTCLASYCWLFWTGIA

[10] = test system: T10, PRIRTVGPGSRSASGKLTCLASYCWLFATGIA
T10 sequence: T2 sequence with W28A, S29T

[11] = test system: T11, RRAPGCLTALASYCWLFWTGIA-CONH2
T11 sequence: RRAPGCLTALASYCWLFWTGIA

[12] = test system: T12, SKQGRPISPDrRAAGKLTCLaSYCWLFWTGIA
T12 sequence: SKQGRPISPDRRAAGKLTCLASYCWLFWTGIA

[13] = test system: T13, RRAPGKLTCLASYCWK(PEG2-Biotin)FWTGIA
T13 sequence: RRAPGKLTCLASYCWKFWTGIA

[14] = test system: T14, RRAPGKLTCLASYCWLFWTGK(PEG2-Biotin)A
T14 sequence: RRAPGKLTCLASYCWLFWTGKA

[15] = test system: T15, RRAPGKCTALASYAWCFWTGIA-COOH
T15 sequence: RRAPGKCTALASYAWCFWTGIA

[16] = test system: T16, RRaPGKLTCLASYCWLFWTGIA
T16 sequence: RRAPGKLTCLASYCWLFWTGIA

[17] = test system: T17, SKAGRPISPDrRAAGKLTCLASYCWLFWTGIA
T17 sequence: T12 sequence with Q3A

[18] = test system: T18, PTDTGPVISG LRAPG KLTCLASYCWLFWTGIA
T18 sequence: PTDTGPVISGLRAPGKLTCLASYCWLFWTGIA

[19] = test system: T19, PRIRTVSPGSRSASGKSTCLASYCWLFWTGIA
T19 sequence: T2 sequence with G7S, L17S, S29T

[20] = test system: T20, GYRVPVGGLV RRAHG KLTCLASYCWLFWTGIA
T20 sequence: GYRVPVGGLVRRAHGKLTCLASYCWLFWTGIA

[21] = test system: T21, RRAPGKLTC-MeLeu-ASYCWLFWTGIA
T21 sequence: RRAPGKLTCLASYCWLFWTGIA

[22] = test system: T22, RCAQSRLPWLVSYCWLFSPYGM
T22 sequence: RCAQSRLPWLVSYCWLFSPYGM

[23] = test system: T23, TGS-KLTCLASYCWLF-APG
T23 sequence: TGSKLTCLASYCWLFAPG

[24] = test system: T24, RGRSAKLTCLASYCWLFFGVIL
T24 sequence: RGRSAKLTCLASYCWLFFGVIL

[25] = test system: T25, CNPRGD-Tyr(OEt)-RC-PEG16-Lys(PEG2-Biotin)-PEG16-rRAPGKLTCLASYCWLFWTGIA
T25 sequence: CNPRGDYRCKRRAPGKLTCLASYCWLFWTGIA

[26] = test system: T26, MQIRQAHQPR RSAPQ KLTCLASYCWLFWTGIA
T26 sequence: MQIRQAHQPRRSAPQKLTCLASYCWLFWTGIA

[27] = test system: T27, PRIRTVGPGSRSASGKLTCLASYCWLFWTFIA
T27 sequence: T2 sequence with S29T, G30F

[28] = test system: T28, KLTCLASYCLLF
T28 sequence: KLTCLASYCLLF

[29] = test system: T29, RRAPGKLQCLASYCWLFWTG-Cha-A
T29 sequence: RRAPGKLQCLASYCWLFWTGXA

[30] = test system: T30, SGRGGKLTCQASFCQLFGNGLS
T30 sequence: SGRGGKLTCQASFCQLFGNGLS

[31] = test system: T31, k-MeLeu-TCLASYCQLF
T31 sequence: KLTCLASYCQLF

[32] = test system: T32, rRAPGKLTCLASYCWLFWTGIA-PEG16-Lys(PEG2-Biotin)-PEG16-CNPRGD-Tyr(OEt)-RC
T32 sequence: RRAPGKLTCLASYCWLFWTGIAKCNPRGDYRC

[33] = test system: T33, RRAPGKLTCK(PEG2-Biotin)ASYCWLFWTGIA
T33 sequence: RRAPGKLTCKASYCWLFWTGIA

[34] = test system: T34, RRAPGKLTCLASYCWLK(PEG2-Biotin)WTGIA
T34 sequence: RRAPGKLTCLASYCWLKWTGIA

[35] = test system: T35, KLTCLASYC
T35 sequence: KLTCLASYC

[36] = test system: T36, PRIRTVGPGSRSASGKLSCLASYCWLFWTGIA
T36 sequence: T2 sequence with T18S, S29T

[37] = test system: T37, LRQRLAKTCVASYCWLFSLVAS
T37 sequence: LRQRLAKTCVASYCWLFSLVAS

[38] = test system: T38, C(PEG5k)GGG-RRAPGKLT-Asp-LASY-Lys-WLFWTGIA
T38 sequence: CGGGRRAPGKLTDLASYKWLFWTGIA

[39] = test system: T39, RRAPGKLTCLASYCWLF EPGIA QPYAKSPTRN
T39 sequence: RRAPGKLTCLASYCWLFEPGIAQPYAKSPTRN

[40] = test system: T40, RRAPGKLQCLASYCWLFWT-Aib-IA
T40 sequence: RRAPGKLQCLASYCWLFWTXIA

[41] = test system: T41, RRAPGKLTCLA-MeSer-YCWLFWTGIA
T41 sequence: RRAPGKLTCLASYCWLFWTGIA

[42] = test system: T42, RRAPGKLTCLASYCWLF LGGIA PEGASTRTAN
T42 sequence: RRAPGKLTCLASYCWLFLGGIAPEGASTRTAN

[43] = test system: T43, RRAPGKLTCLASYACLFWTGIA-COOH
T43 sequence: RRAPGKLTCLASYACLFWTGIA

[44] = test system: T44, RRAPGKLTCLASYCWLF WTTYA SYATKPADTT
T44 sequence: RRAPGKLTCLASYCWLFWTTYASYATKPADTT

[45] = test system: T45, WRAGLDESQR DRAPG KLTCLASYCWLFWTGIA
T45 sequence: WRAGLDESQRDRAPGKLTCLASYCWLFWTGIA

## human Factor IXa
[1]
  Vmax, FXa generation assay: > 2
[2]
  Vmax, FXa generation assay: > 3
[3]
  Vmax, FXa generation assay: > 2
[4]
  Vmax, FXa generation assay: > 3
[5]
  Vmax, FXa generation assay; (++) means 1-2: (++)
[6]
  Vmax, FXa generation assay: > 3
[7]
  Vmax, FXa generation assay: > 0.5
[8]
  Vmax, FXa generation assay: > 3
[9]
  Vmax, FXa generation assay: > 2
[10]
  Vmax, FXa generation assay: > 3
[11]
  Vmax, FXa generation assay; (++) means 1-2: (++)
[12]
  Vmax, FXa generation assay: > 0.5
[13]
  Vmax, FXa generation assay: > 3
[14]
  Vmax, FXa generation assay; (++) means 1-2: (++)
[15]
  Vmax, FXa generation assay: > 2
[16]
  Vmax, FXa generation assay; (++) means 1-2: (++)
[17]
  Vmax, FXa generation assay: > 2
[18]
  Vmax, FXa generation assay; (++) means 1-2: (++)
[19]
  Vmax, FXa generation assay: > 3
[20]
  Vmax, FXa generation assay: > 2
[21]
  Vmax, FXa generation assay; (++) means 1-2: (++)
[22]
  Vmax, FXa generation assay: > 1.5
[23]
  Vmax, FXa generation assay: > 2
[24]
  Vmax, FXa generation assay: > 2
[25]
  Vmax, FXa generation assay: > 3
[26]
  Vmax, FXa generation assay: > 2
[27]
  Vmax, FXa generation assay: > 2
[28]
  Vmax, FXa generation assay: > 2
[29]
  Vmax, FXa generation assay: > 3
[30]
  Vmax, FXa generation assay; (++) means 1-2: (++)
[31]
  Vmax, FXa generation assay: > 3
[32]
  Vmax, FXa generation assay: > 3
[33]
  Vmax, FXa generation assay; (++) means 1-2: (++)
[34]
  Vmax, FXa generation assay: > 2
[35]
  Vmax, FXa generation assay: > 3
[36]
  Vmax, FXa generation assay: > 3
[37]
  Vmax, FXa generation assay: > 1.5
[38]
  Vmax, FXa generation assay; (++) means 1-2: (++)
[39]
  Vmax, FXa generation assay: > 2
[40]
  Vmax, FXa generation assay; (++) means 1-2: (++)
[41]
  Vmax, FXa generation assay; (++) means 1-2: (++)
[42]
  Vmax, FXa generation assay: > 3
[43]
  Vmax, FXa generation assay: > 2
[44]
  Vmax, FXa generation assay: > 2
[45]
  Vmax, FXa generation assay; (++) means 1-2: (++)
